Patent EP4696714A1, “PREPARATION METHOD FOR NANOBODY TARGETING TISSUE FACTOR AND CONJUGATE AND USE THEREOF” (Fudan University, priority 2023, dated 2024)
Where two headings read alike, the source gives them in different places.

Columns and labels:
[1] = target: T1, TF on the surface of tumor cells (MDA-MB-231, HPAF-II, HCC1806, BxPC3, HCC44, PC9, H1975 and other … (UniProt P13726 33-295, limits assumed)); experiment: flow cytometry on MDA-MB-231 cells, PE-labeled secondary antibody
T1 construct: whole, on cells; the cell lines are human tumour lines; also called TF on cell surface; tumor cell surface TF

[2] = target: T1, TF on the surface of tumor cells …; experiment: cell-based or functional assay
[3] = target: T1, TF on the surface of tumor cells …; experiment: cell-based or functional assay; remark: listed apart in the source
[4] = target: T2, human TF extracellular domain protein (TF-ECD, Met 1-Glu 251) (human, UniProt P13726 33-251); experiment: ForteBio OCTET R2; His-tagged antigen on NTA sensor, nanobody-Fc 25-1.56 nM in solution, 25°C
T2 construct: range 1-251; also called human TF-ECD; not shown: His tag (protein captured on an NTA sensor as 'FDYKSD-01-His')

Binder | EC50 [1] [µg/mL] | Cell proliferation inhibition IC50, BxPC3 cells (MTS) [2] [ng/mL] | Cell proliferation inhibition IC50, H1975 cells (MTS) [2] [µg/mL] | Cell proliferation inhibition IC50, HCC44 cells (MTS) [2] [µg/mL] | Cell proliferation inhibition IC50, HPAF-II cells (MTS) [2] [ng/mL] | Cell proliferation inhibition IC50, PC9 cells (MTS) [2] [ng/mL] | Cell proliferation inhibition IC50, BxPC3 cells (MTS) [3] [ng/mL] | Cell proliferation inhibition IC50, HCC1806 cells (MTS) [3] [ng/mL] | Cell proliferation inhibition IC50, HPAF-II cells (MTS) [3] [ng/mL] | Kd [4] [nM]
4-C08-FC1 (chimeric nanobody: 4-C08 VHH fused with human Fc mutant fragment FC1) (Fc fusion, built from the VHH and FC1) DVQLVESGGGLVQPGGSLRLSCAVSGFSLSSYDMNWYRQGPGKEREWVANIHSSGGYPDYADAVKGRFTISRDNAKNMVYLQMNSLKPEDTAVYYCNLPPSRRWYKDYWGQGTQVTVSSEPKSSDKTHTCPPCPAPEFEGGPSVFLFPPKPKDTLMISRTPEVTCVVVDVSHEDPEVKFNWYVDGVEVHNAKTKPREEQYNSTYRVVSVLTVLHQDWLNGKEYKCKVSNKALPASIEKTISKAKGQPREPQVYTLPPSRDELTKNQVSLTCLVKGFYPSDIAVEWESNGQPENNYKTTPPVLDSDGSFFLYSKLTVDKSRWQQGNVFSCSVMHEALHNHYTQKSLSLSPGK | 0.05 |  |  |  |  |  |  |  |  | 
4-A02-ABD-MMAE (4-A02-ABD coupled to mc-vc-MMAE) (other, mc-vc-MMAE coupled to a cysteine thiol after TCEP reduction; DAR 1; position not stated) QVQLVESGGGLVQPGGSLSLSCTASETISSTYIMGWHRRSPGKERELVAVISGDGVTHYADFVKGRFVISRDNAKNAVYLKMNFLTPEDTAVYYCYAAGRWNHWGQGTQVTVSSGGGGSGGGGSGGGGSQHDEAVDANSLAEAKVLANRELDKYGVSDYYKNLINNAKTVEGVKALIDEILAALPAAACAAAHHHHHH |  | 0.3 | 0.163 | 0.0794 | 1.3 | 5 |  |  |  | 
4-A02-FC1-MMAE (4-A02-FC1 coupled to mc-vc-MMAE) (Fc fusion, mc-vc-MMAE coupled to cysteine thiols after TCEP reduction; target DAR 4 for the dimer (about 95% DAR4 by HIC); positions not given) QVQLVESGGGLVQPGGSLSLSCTASETISSTYIMGWHRRSPGKERELVAVISGDGVTHYADFVKGRFVISRDNAKNAVYLKMNFLTPEDTAVYYCYAAGRWNHWGQGTQVTVSSEPKSSDKTHTCPPCPAPEFEGGPSVFLFPPKPKDTLMISRTPEVTCVVVDVSHEDPEVKFNWYVDGVEVHNAKTKPREEQYNSTYRVVSVLTVLHQDWLNGKEYKCKVSNKALPASIEKTISKAKGQPREPQVYTLPPSRDELTKNQVSLTCLVKGFYPSDIAVEWESNGQPENNYKTTPPVLDSDGSFFLYSKLTVDKSRWQQGNVFSCSVMHEALHNHYTQKSLSLSPGK |  | 0.8 | 0.0022 | 0.0022 | 0.2 | 0.4 | 0.1 | 0.1 | 0.7 | 
4-A02-FC1 (chimeric nanobody: 4-A02 VHH fused with human Fc mutant fragment FC1) (Fc fusion, VHH-Fc fusion expressed in HEK293; also called chimeric antibody 4-A02) QVQLVESGGGLVQPGGSLSLSCTASETISSTYIMGWHRRSPGKERELVAVISGDGVTHYADFVKGRFVISRDNAKNAVYLKMNFLTPEDTAVYYCYAAGRWNHWGQGTQVTVSSEPKSSDKTHTCPPCPAPEFEGGPSVFLFPPKPKDTLMISRTPEVTCVVVDVSHEDPEVKFNWYVDGVEVHNAKTKPREEQYNSTYRVVSVLTVLHQDWLNGKEYKCKVSNKALPASIEKTISKAKGQPREPQVYTLPPSRDELTKNQVSLTCLVKGFYPSDIAVEWESNGQPENNYKTTPPVLDSDGSFFLYSKLTVDKSRWQQGNVFSCSVMHEALHNHYTQKSLSLSPGK | 0.08 |  |  |  |  |  |  |  |  | 2.09
4-A02-FC1-DXd (4-A02-FC1 coupled to GGFG-DXd) (Fc fusion, GGFG-DXd coupled to cysteine thiols after TCEP reduction; DAR 4; positions not given) QVQLVESGGGLVQPGGSLSLSCTASETISSTYIMGWHRRSPGKERELVAVISGDGVTHYADFVKGRFVISRDNAKNAVYLKMNFLTPEDTAVYYCYAAGRWNHWGQGTQVTVSSEPKSSDKTHTCPPCPAPEFEGGPSVFLFPPKPKDTLMISRTPEVTCVVVDVSHEDPEVKFNWYVDGVEVHNAKTKPREEQYNSTYRVVSVLTVLHQDWLNGKEYKCKVSNKALPASIEKTISKAKGQPREPQVYTLPPSRDELTKNQVSLTCLVKGFYPSDIAVEWESNGQPENNYKTTPPVLDSDGSFFLYSKLTVDKSRWQQGNVFSCSVMHEALHNHYTQKSLSLSPGK |  | 2.5 | > 15 | 0.0191 | 2.4 | 5630 |  |  |  | 
